From publication PMC4892554

Tests used:
[1] = biological target: D25; test: flow cytometry on cells (shotgun mutagenesis alanine scan, HEK293T); details: read off a plot
[2] = biological target: Palivizumab; test: as above; details: read off a plot

Substance	percent of parent [1] [% WT]	percent of parent [2] [% WT]
wildtype RSV F (RSV-A2) expressed on HEK-293T cells (from UniProt P03420) D385A	88	140
wildtype RSV F (RSV-A2) expressed on HEK-293T cells (from UniProt P03420) F387A	74	150
wildtype RSV F (RSV-A2) expressed on HEK-293T cells (from UniProt P03420) G446A	90	70
wildtype RSV F (RSV-A2) expressed on HEK-293T cells (from UniProt P03420) K433A	120	150
wildtype RSV F (RSV-A2) expressed on HEK-293T cells (from UniProt P03420) K465A	100	140
wildtype RSV F (RSV-A2) expressed on HEK-293T cells (from UniProt P03420) N388A	74	87
wildtype RSV F (RSV-A2) expressed on HEK-293T cells (from UniProt P03420) N426A	230	290
